Target: T1, factor H binding protein (wild type, variant 1) (Neisseria meningitidis, UniProt E6MV22 20-274)
T1 sequence: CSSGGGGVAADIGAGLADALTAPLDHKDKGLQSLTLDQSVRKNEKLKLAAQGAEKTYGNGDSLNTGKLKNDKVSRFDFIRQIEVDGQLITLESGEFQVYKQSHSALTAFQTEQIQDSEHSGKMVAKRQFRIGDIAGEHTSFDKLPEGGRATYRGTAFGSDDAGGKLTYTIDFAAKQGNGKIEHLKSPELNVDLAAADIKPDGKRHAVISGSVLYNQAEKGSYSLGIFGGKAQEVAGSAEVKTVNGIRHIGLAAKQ
Assay: derived from binding studies (SPR)

B1: fH67 (CCPs 6 and 7 of factor H) (other)
chain: TLKPCDYPDIKHGGLYHENMRRPYFPVAVGKYYSYYCDEHFETPSGSYWDHIHCTQDGWSPAVPCLRKCYFPYLENGYNQNYGRKFVQGKSIDVACHPGYALPKAQTTVTCMENGWSPTPRCI
notes: domain: CCPs 6 and 7; also called CCPs 67; Factor H domains 6 & 7
  ΔG (calculated from KD): -11 kcal/mol
